B1: Complement factor H (Homo sapiens), P08603 (parent)
chain: MRLLAKIICLMLWAICVAEDCNELPPRRNTEILTGSWSDQTYPEGTQAIYKCRPGYRSLGNVIMVCRKGEWVALNPLRKCQKRPCGHPGDTPFGTFTLTGGNVFEYGVKAVYTCNEGYQLLGEINYRECDTDGWTNDIPICEVVKCLPVTAPENGKIVSSAMEPDREYHFGQAVRFVCNSGYKIEGDEEMHCSDDGFWSKEKPKCVEISCKSPDVINGSPISQKIIYKENERFQYKCNMGYEYSERGDAVCTESGWRPLPSCEEKSCDNPYIPNGDYSPLRIKHRTGDEITYQCRNGFYPATRGNTAKCTSTGWIPAPRCTLKPCDYPDIKHGGLYHENMRRPYFPVAVGKYYSYYCDEHFETPSGSYWDHIHCTQDGWSPAVPCLRKCYFPYLENGYNQNYGRKFVQGKSIDVACHPGYALPKAQTTVTCMENGWSPTPRCIRVKTCSKSSIDIENGFISESQYTYALKEKAKYQCKLGYVTADGETSGSITCGKDGWSAQPTCIKSCDIPVFMNARTKNDFTWFKLNDTLDYECHDGYESNTGSTTGSIVCGYNGWSDLPICYERECELPKIDVHLVPDRKKDQYKVGEVLKFSCKPGFTIVGPNSVQCYHFGLSPDLPICKEQVQSCGPPPELLNGNVKEKTKEEYGHSEVVEYYCNPRFLMKGPNKIQCVDGEWTTLPVCIVEESTCGDIPELEHGWAQLSSPPYYYGDSVEFNCSESFTMIGHRSITCIHGVWTQLPQCVAIDKLKKCKSSNLIILEEHLKNKKEFDHNSNIRYRCRGKEGWIHTVCINGRWDPEVNCSMAQIQLCPPPPQIPNSHNMTTTLNYRDGEKVSVLCQENYLIQEGEEITCKDGRWQSIPLCVEKIPCSQPPQIEHGTINSSRSSQESYAHGTKLSYTCEGGFRISEENETTCYMGKWSSPPQCEGLPCKSPPEISHGVVAHMSDSYQYGEEVTYKCFEGFGIDGPAIAKCLGEKWSHPPSCIKTDCLSLPSFENAIPMGEKKDVYKAGEQVTYTCATYYKMDGASNVTCINSRWTGRPTCRDTSCVNPPTVQNAYIVSRQMSKYPSGERVRYQCRSPYEMFGDEEVMCLNGNWTEPPQCKDSTGKCGPPPPIDNGDITSFPLSVYAPASSVEYQCQNLYQLEGNKRITCRNGQWSEPPKCLHPCVISREIMENYNIALRWTAKQKLYSRTGESVEFVCKRGYRLSSRSHTLRTTCWDGKLEYPTCAKR
partner: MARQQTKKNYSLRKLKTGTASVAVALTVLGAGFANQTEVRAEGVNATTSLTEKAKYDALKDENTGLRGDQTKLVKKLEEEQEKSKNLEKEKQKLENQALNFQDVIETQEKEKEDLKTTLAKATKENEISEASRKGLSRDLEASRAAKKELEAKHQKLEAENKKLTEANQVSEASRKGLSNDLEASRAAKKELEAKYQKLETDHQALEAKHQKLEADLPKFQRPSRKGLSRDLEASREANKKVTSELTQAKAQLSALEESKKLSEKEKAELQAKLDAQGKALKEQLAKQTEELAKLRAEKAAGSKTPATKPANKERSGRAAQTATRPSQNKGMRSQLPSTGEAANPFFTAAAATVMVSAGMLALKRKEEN

Variants of: B1
Conditions: with mx_strp9 ennX

Variant | effect of a mutation on the interaction
Y402H | decreasing interaction strength
